Several values for one entry are separate records, joined by “and”; a condition that tells them apart may be missing. Identical values can stand only once.

The results in this text go back to publication PMC4538827.

Data set [1] has as its target T1, σNS (sigma NS) (Avian reovirus strain 1733) (UniProt W8NR44).
T1 sequence: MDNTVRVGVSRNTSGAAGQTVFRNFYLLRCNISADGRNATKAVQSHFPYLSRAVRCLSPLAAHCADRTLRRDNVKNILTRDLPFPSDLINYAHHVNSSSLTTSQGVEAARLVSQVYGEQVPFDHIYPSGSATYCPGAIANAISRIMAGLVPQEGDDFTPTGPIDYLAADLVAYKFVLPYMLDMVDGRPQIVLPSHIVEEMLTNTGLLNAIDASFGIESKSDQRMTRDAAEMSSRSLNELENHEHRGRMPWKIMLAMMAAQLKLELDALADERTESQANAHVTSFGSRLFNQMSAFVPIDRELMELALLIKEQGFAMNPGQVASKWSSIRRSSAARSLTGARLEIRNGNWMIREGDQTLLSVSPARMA
The data set is described as follows: fluorescence anisotropy. Conditions: FA: 10 mM HEPES-NaOH pH 7.5, 150 mM NaCl, 21 C, 1 nM RNA, 30 min; smFRET in same buffer at 37 C; SEC 25 mM HEPES-Na pH 7.8, 150 mM NaCl, 4 C. In general terms: Fluorescence polarisation rises when a labelled molecule tumbles more slowly, as on binding a larger partner.

Data set [2] concerns the target T1, σNS (sigma NS) (Avian reovirus strain 1733). The data set can be described thus: fluorescence anisotropy. Conditions: FA: 10 mM HEPES-NaOH pH 7.5, 150 mM NaCl, 21 C, 1 nM RNA, 30 min; smFRET in same buffer at 37 C; SEC 25 mM HEPES-Na pH 7.8, 150 mM NaCl, 4 C. This is another data set of the same source.
Data set [3] has the same target. The data set can be described thus: ensemble FRET. Conditions: FA: 10 mM HEPES-NaOH pH 7.5, 150 mM NaCl, 21 C, 1 nM RNA, 30 min; smFRET in same buffer at 37 C; SEC 25 mM HEPES-Na pH 7.8, 150 mM NaCl, 4 C.
Data set [4] shares this target. The data set is described as follows: FCS. Conditions: FA: 10 mM HEPES-NaOH pH 7.5, 150 mM NaCl, 21 C, 1 nM RNA, 30 min; smFRET in same buffer at 37 C; SEC 25 mM HEPES-Na pH 7.8, 150 mM NaCl, 4 C.
Data set [5] deals with avian reovirus σNS (ARV strain 1733), full-length recombinant (avian reovirus strain 1733). The data set is described as follows: native MS.
For data set [6] the target is unchanged. The data set is described as follows: SAXS.
For data set [7] the target is unchanged. The data set is described as follows: AUC.
The target is the same in data set [8]. The data set can be described thus: native MS. The source holds these as a separate data set.

By Kd is commonly meant the free concentration of one partner at which half of the binding sites on the other are occupied at equilibrium, for simple one-to-one binding. 20-nt ssDNA: the equilibrium dissociation constant (Kd) in data set [1] was 24.5 nM.

Consider “ATAGGTATAACAGTTAACGTATGCTATACGCTAATAGCATACGTTT [46-nt stem-loop]”, for which the Kd turned out to be 333 nM in data set [2] and 1100 nM in data set [3].

Turning to GACCUAUUCUCUUUUUCUCU [20-nt RNA], the Kd in data set [2] came to 26.5 nM; in data set [1], 35 nM; in data set [4], 39.5 nM.

In turn, “GGGAGACCUAUUCUCUUUUUCUCUCCUUUUCCCCCCUGUUGCUUUAUUUUCCUUCUUUGCCUUUUUCUCUCUUUUUUUUUCUUUUUUCCCUUUCUGCUUUCCUCCCCUAUUCUCCCCUCUU [120-nt RNA]” registered a Kd in data set [2] of 25 nM.

For the substance MS2 RNA (3569 nt), the dissociation constant Kd in data set [4] turned out to be 250 nM.

A word on the stoichiometry N: it is the number of molecules, sites or subunits per partner or assembly. On to “avian reovirus σNS (ARV strain 1733), full-length recombinant (natural protein)”, for which the stoichiometry N was 6 and 2 and 4 in data set [5]; 6 in data set [6]; 6 in data set [7]; 8 in data set [8].
